Experimental findings from the Immune Epitope Database (IEDB) are described below.

Bounds are passed on as bounds.

What is called Kd is the free concentration of one partner at which half of the binding sites on the other are occupied at equilibrium, for simple one-to-one binding. The low end stands for higher affinity, the high end for lower affinity. Usually IC50 stands for the concentration that gives 50% inhibition.

In one test the target is HLA-B*58:01. As to the kind of experiment: IEDB peptide-MHC binding, purified MHC/direct/fluorescence; filed as Kd, often an IC50 or EC50 that approximates it; ≥ and ≤ were set here for values at or beyond the usual limits of such assays.
The target of the next test is HLA-A*68:23. Kind of test: IEDB peptide-MHC binding, purified MHC/competitive/fluorescence; filed as Kd, often an IC50 or EC50 that approximates it; ≥ and ≤ were set here for values at or beyond the usual limits of such assays. Particulars: source organism: Mycobacterium tuberculosis variant bovis BCG str. Pasteur 1173P2.
The target in the next test is HLA-A*32:15. The description is as above. The note with it: source organism: Mycobacterium tuberculosis variant bovis BCG str. Pasteur 1173P2.
The target in the next test is HLA-B*15:42. Described as above. Particulars: source organism: Mycobacterium tuberculosis variant bovis BCG str. Pasteur 1173P2.
In another test the target is HLA-A*32:07. The test is described as above. Particulars: source organism: Mycobacterium tuberculosis variant bovis BCG str. Pasteur 1173P2.
The target of another test is HLA-B*83:01. Described as above. Particulars: source organism: Mycobacterium tuberculosis variant bovis BCG str. Pasteur 1173P2.
A further test has as its target HLA-B*45:06. The test is described as above. Particulars: source organism: Mycobacterium tuberculosis variant bovis BCG str. Pasteur 1173P2.
In the next test the target is HLA-B*51:01. The test is described as above.
Test [1] addresses HLA-B*35:01. The description is as above. Particulars: source organism: Mycobacterium tuberculosis variant bovis BCG str. Pasteur 1173P2.
The next test has as its target HLA-B*15:01. As to the kind of experiment: IEDB peptide-MHC binding, purified MHC/direct/fluorescence; filed as Kd, often an IC50 or EC50 that approximates it; ≥ and ≤ were set here for values at or beyond the usual limits of such assays.
The target of test [2] is HLA-B*57:01. The description is as above. Particulars: source organism: Camelpox virus M-96.
The next test addresses HLA-B*40:01. Described as above. The note with it: source organism: Camelpox virus M-96.
For another test, the target named is HLA-B*15:09. The test is described as above. Particulars: source organism: Variola virus.
A further test concerns the target HLA-B*48:01. The description is as above. Particulars: source organism: Camelpox virus M-96.
The target of test [3] is HLA-A*26:01. The description is as above. The note with it: source organism: Variola virus.
For test [4], the target named is HLA-A*02:01. Described as above. The note with it: source organism: Camelpox virus M-96.
Another test concerns the target HLA-A*80:01. Described as above. The note with it: source organism: Camelpox virus M-96.
In test [5] the target is HLA-B*46:01. The test is described as above. Particulars: source organism: Camelpox virus M-96.
For a further test, the target named is HLA-A*31:01. The description is as above. The note with it: source organism: Camelpox virus M-96.
A further test concerns the target HLA-A*01:01. The test is described as above. The note with it: source organism: Camelpox virus M-96.
Another test has as its target HLA-B*27:05. The description is as above. Particulars: source organism: Camelpox virus M-96.
Another test has as its target HLA-B*39:01. The description is as above. Particulars: source organism: Variola virus.
The target of a further test is HLA-A*03:01. Kind of test: IEDB peptide-MHC binding, purified MHC/competitive/fluorescence; filed as Kd, often an IC50 or EC50 that approximates it; ≥ and ≤ were set here for values at or beyond the usual limits of such assays.
The target in test [6] is HLA-A*11:01. The description is as above. The note with it: source organism: Taterapox virus.
The target of a further test is HLA-A*69:01. Described as above.
Another test has as its target HLA-B*15:17. The description is as above.
Another test deals with HLA-C*08:02. As to the kind of experiment: IEDB peptide-MHC binding, purified MHC/direct/fluorescence; filed as Kd, often an IC50 or EC50 that approximates it; ≥ and ≤ were set here for values at or beyond the usual limits of such assays. Particulars: source organism: Burkholderia mallei SAVP1.
Test [7] addresses HLA-B*57:01. As to the kind of experiment: IEDB peptide-MHC binding, purified MHC/competitive/fluorescence; filed as Kd, often an IC50 or EC50 that approximates it; ≥ and ≤ were set here for values at or beyond the usual limits of such assays.
A further test deals with HLA-B*27:03. The test is described as above. Particulars: source organism: Burkholderia mallei SAVP1.
In test [8] the target is HLA-A*26:01. Described as above. The note with it: source organism: Burkholderia mallei SAVP1.
The target in test [9] is HLA-A*02:01. Described as above. Particulars: source organism: Burkholderia mallei SAVP1.
Another test addresses HLA-A*68:02. Described as above. The note with it: source organism: Burkholderia mallei SAVP1.
In another test the target is HLA-B*18:01. The description is as above. The note with it: source organism: Burkholderia mallei SAVP1.
The next test concerns the target HLA-A*02:11. Described as above. The note with it: source organism: Burkholderia mallei SAVP1.
Test [10] deals with HLA-B*46:01. Described as above. Particulars: source organism: Burkholderia mallei SAVP1.
In a further test the target is HLA-A*29:02. The description is as above. Particulars: source organism: Burkholderia mallei SAVP1.
The target of test [11] is HLA-A*02:01. Kind of test: IEDB peptide-MHC binding, cellular MHC/competitive/fluorescence; ≥ and ≤ were set here for values at or beyond the usual limits of such assays. Particulars: source organism: Measles morbillivirus.
Test [12] has as its target HLA-B*35:01. Kind of test: IEDB peptide-MHC binding, purified MHC/direct/fluorescence; filed as Kd, often an IC50 or EC50 that approximates it; ≥ and ≤ were set here for values at or beyond the usual limits of such assays. Particulars: source organism: Salmonella enterica subsp. enterica serovar Typhi.
The next test addresses HLA-B*44:02. Kind of test: IEDB peptide-MHC binding, purified MHC/competitive/fluorescence; filed as Kd, often an IC50 or EC50 that approximates it; ≥ and ≤ were set here for values at or beyond the usual limits of such assays. The note with it: source organism: Salmonella enterica subsp. enterica serovar Typhi.
The target of another test is HLA-C*01:02. As to the kind of experiment: IEDB peptide-MHC binding, purified MHC/direct/fluorescence; filed as Kd, often an IC50 or EC50 that approximates it; ≥ and ≤ were set here for values at or beyond the usual limits of such assays. The note with it: source organism: Homo sapiens.
The target of another test is HLA-A*24:02. As to the kind of experiment: IEDB peptide-MHC binding, purified MHC/competitive/radioactivity; ≥ and ≤ were set here for values at or beyond the usual limits of such assays. Particulars: source organism: Homo sapiens.
Test [13] deals with HLA-B*35:01. Kind of test: IEDB peptide-MHC binding, cellular MHC/competitive/fluorescence; ≥ and ≤ were set here for values at or beyond the usual limits of such assays. Particulars: source organism: Influenza A virus H3N2.
The target of another test is HLA-B*07:02. Kind of test: IEDB peptide-MHC binding, purified MHC/competitive/radioactivity; ≥ and ≤ were set here for values at or beyond the usual limits of such assays. Particulars: source organism: Toxoplasma gondii.
Test [14] deals with HLA-A*11:01. The description is as above. The note with it: source organism: Toxoplasma gondii.
Test [15] concerns the target HLA-A*02:01. Described as above. The note with it: source organism: Toxoplasma gondii.
The target in test [16] is HLA-A*02:01. As to the kind of experiment: IEDB peptide-MHC binding, binding assay; filed as Kd, often an IC50 or EC50 that approximates it; ≥ and ≤ were set here for values at or beyond the usual limits of such assays. The note with it: source organism: Severe acute respiratory syndrome coronavirus 2 Indonesia/JI-ITD-12202V/2020.
Where [17] appears, read: source organism: Camelpox virus M-96.
The mark [18] stands for this setting: source organism: Taterapox virus.
Where [19] appears, read: source organism: Burkholderia mallei SAVP1.
The mark [20] stands for this setting: source organism: Salmonella enterica subsp. enterica serovar Typhi.

As to MTMITPPTF, the Kd in the test with HLA-B*58:01 (source organism: Mycobacterium tuberculosis) is 51.3 nM; with HLA-A*68:23, 4.4 nM; with HLA-A*32:15, 19.2 nM; with HLA-B*15:42 it was no less than 5000 nM; in the test with HLA-A*32:07 it was 9.3 nM; with HLA-B*83:01, no less than 5000 nM. Moreover, the results for the Kd with HLA-B*45:06, with HLA-B*51:01 (source organism: Mycobacterium tuberculosis variant bovis BCG str. Pasteur 1173P2) and with HLA-B*35:01 [1] were no less than 5000 nM, no less than 20000 nM and 111 nM, respectively.

Take NTDAFSREY: the Kd with HLA-B*15:01 (setting [17]), with HLA-B*57:01 [2], with HLA-B*40:01, in the test with HLA-B*15:09, with HLA-B*58:01 (setting [17]) and in the test with HLA-B*48:01 was no less than 20000 nM throughout. The Kd with HLA-A*26:01 [3] is 984 nM; with HLA-A*02:01 [4], no less than 20000 nM; with HLA-A*80:01 it was 567 nM; in the test with HLA-B*46:01 [5] it was no less than 20000 nM; with HLA-A*31:01, no less than 20000 nM; in the test with HLA-A*01:01, 7 nM. In addition, the Kd in the test with HLA-B*27:05, with HLA-B*39:01, in the test with HLA-A*03:01 (setting [18]), with HLA-A*11:01 [6], in the test with HLA-A*69:01 (setting [18]) and in the test with HLA-B*15:17 (setting [18]) was no less than 20000 nM each time.

For the sequence RLDARLQVL, the Kd is 82 nM with HLA-C*08:02; no less than 20000 nM with HLA-B*57:01 [7] (setting [19]); no less than 20000 nM with HLA-A*03:01 (setting [19]); no less than 20000 nM in the test with HLA-B*27:03; no less than 20000 nM in the test with HLA-A*26:01 [8]; no less than 20000 nM with HLA-A*69:01 (setting [19]). The Kd is 7.4 nM with HLA-A*02:01 [9]; no less than 20000 nM with HLA-A*68:02; no less than 20000 nM with HLA-B*15:17 (setting [19]); no less than 20000 nM with HLA-B*18:01; no less than 20000 nM with HLA-B*51:01 (setting [19]); 1.1 nM in the test with HLA-A*02:11. Besides, the Kd was no less than 20000 nM in the test with HLA-B*46:01 [10] and 1020 nM with HLA-A*29:02.

The sequence QLPEATFMV yielded an IC50 with HLA-A*02:01 [11] of 2000 nM.

Turning to IVLLCYGGW, the Kd in the test with HLA-B*15:01 (setting [20]) was 6180 nM; with HLA-B*35:01 [12], 2530 nM; with HLA-B*57:01 [7] (setting [20]), 498 nM; in the test with HLA-B*15:17 (setting [20]), 175 nM; in the test with HLA-B*44:02, no less than 20000 nM.

As to HLSSSQLQSL, the Kd with HLA-C*01:02 was no more than 0.1 nM.

On to SFSTTINYTL, for which the IC50 with HLA-A*24:02 is 800 nM.

Regarding LPFDKPTIM, in the test with HLA-B*35:01 [13], the half-maximal inhibitory concentration (IC50) stood at 1600 nM.

For AVVSLLRLLK, the figures for the IC50 with HLA-B*07:02, in the test with HLA-A*11:01 [14] and with HLA-A*02:01 [15] were no less than 50000 nM, 6.5 nM and 11300 nM, respectively.

Regarding YLQPRTFLL, the Kd with HLA-A*02:01 [16] is 75 nM. In other words, the double-digit nanomolar range.
